Measured values published in the nanobody polyreactivity screen of Harvey et al. (2022).

experiment: yeast display, Sf9 membrane polyspecificity reagent, FACS + sequencing; frameworks hold sequencing errors
Procedure, shortened: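 Using colony PCR, genes from sorted yeast display clones were amplified, then sequenced on MiSeq at 2 × 250 and filtered by CDR length. The clones had been stained with 10% biotinylated, detergent-solubilized Sf9 membrane reagent for 1 hour at 4 °C and sorted by FACS into low and high (top ~1%) gates on anti-HA and streptavidin fluorescence. Polyreactivity labels come from the gate of origin.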

| Sequence | polyreactivity (PSR sort gate) |
| --- | --- |
| QVQLVESGGGLVQAGGSLRLSCAASGRTFVANRMGWYRQAPGKERELVAAINDGDDTYYADSVKGRFTISRDNAKNTVYLQMNSLKPEDTAVYYCAADIIYGYEVYTYTSDYWGQGTQVTVSS | low polyreactivity |
| QVQLVESGGGLVQAGGSLRLICAASGSIFPSYAMGWYRQAPGKERELVAAISVSGGRTYYADSVKGRFTISRDNAKYSVYLQMNSLKPEDTAVYYCATVGKQKYDAKYGYWGQGTQVTVSS | high polyreactivity |
| QVQLVESGGGLVQAGGSLRLSCAASGRIFLWYAMGWYRQAPGKERELVAAIWRGGSTYYADSVKGRFTISRDNAKNTVYLQMNSLKPEDTAVYYCNAQRAPHWYYLFDYWGQGTQVTVSS | low polyreactivity |
| QVQLVESWGGLVQAGGSLRLSCADSGRIFLRNTMGWYRQAPGKERELVATISKSAGSTYYADSVKGRFTISRDNAKNSVYLQMNSLKPEDTAVYYCATSRYLKLGYDYWGQGTQVTVSS | high polyreactivity |
| QVQLVDSGGGLVQAGGSLRLSCAASGITFYYYAMGSYRQAPGKETELVAAISSRGGSTYYADSVKGRFTISRDNAKNTVYFQMNSLKQEDTAVYYCAADYYSSYYSSYIKSYYWGLGTQVTVSS | high polyreactivity |
| QVQLVESGGGLVQAGGSLRLSCAASAFTFYSNAMGWYRQAPGTEREVVASISASGGSTYYADSVKGRFTISRDNAKNSVYLQMNSLKPEDTAVYYCAVYWSYLFDYLGQGTQVTVSS | high polyreactivity |
| QVQLVESGGGLDQAGGSVRLSCAASGSTFDNYAMGWYRQAPGKEREWVAVISRSGTSTYYADSVKGRFTISRDNAKNTVYLQMNSLKPEDTAVYYCASAPSQVYRARFYYWGQGTQVTVSS | high polyreactivity |
| QVQLEESGGGLVQAGGSLRLICAASGLTFYSYAMGWYRQAPGKERELVATIRWSGGSTYYADSVKGRFTISRDNANNTVYLQMNSLKPEDTAVYYCNKRRYPVGSLFDYWGQGTQVTVSS | low polyreactivity |
| QVQLVESGGGLVQAGGSLRLSCAASGSTFAYYVMGWYRQAPGKERELVAAITGTGGSTYYADSVKGRFTISRDNAKNTVYLQLNSLKPEDTAVYYCAAETPIYYGYWYDSWGQGTQVTVSS | high polyreactivity |
| QVQLVDSGGGLVQAGGSLRLSCAASGFTFQYYSMGWYRQATGKERELVADISSSGDSTNYADSVKGRFTISRDTAKNTVYLQMNSLKPEDTAVYYCAADYSQPNFEYYYWGQGTQVTVSS | low polyreactivity |
| QVQLVESGGGLVQAGGSLRLSCAASGRIFTDYAMGWYRQAPGKERELVASITERGGSTDYADSVKGRFTISRDNAKITVYLQMNSLKPEDTAVYYCNARDVTLWEDVYQQDGSGSWGLGTQVTVSS | low polyreactivity |
| QVQLVESGGGLVQAGGSLRLSCAASGSISGYYAMGWNRQAPGKERELVASIRYTGARTYYADSVKGRFTISRDNAKNTVYLQMNSLKPEDTAVYYCAADVKRDRVWGGDYWGQGTQVTVSS | low polyreactivity |
| QVQLVESGGGFVQAGGSLRLSCAASGRIFLWNAMGWYRQAPGKERELVAGIRWSTGSTYYADSVKGRFTISRDNAKYTVSLQMYSLKRDDTAVYYCNARSLATGSKVPARGYWGQGTQVTVSS | high polyreactivity |
| QVQLVESGGGLVQAGGSLRLSCAASGFIFRNYVMGWYRQAPGKERELVAAINWSTGTTNYADSVKGGFTISRDNAKNTVYLQMNSLKPEDTAVYYCNARYRLRYIYSLRYDYWGQGTQVTVSS | high polyreactivity |
| QVQLVESGGGLVQAGGSLRLSCAASGSILIVYAMGWYRQAPGKERELVAAITRGGRTNYADSVKGRFTISRDYAKNTVYLQMNSLKPEDPAVYYCAAYTESYGGSDYDYWGQGTQVTVSS | high polyreactivity |
| QVQLVESGGGLVQAGGSLRLSCAASGFIFRFNAMGWYRQAPGKERQLVAAISGSGGITYYADSVKGRFTISRDNAKNTVYLQMNSLKPEDTAVYYCAARPLFGWRGYNYWGQGTQVTVSS | high polyreactivity |
| QVQLVESGGGLVQAGGSLRLSCAASGFIFRYYAMGWYRQAPGKEREFVASINWNGGSTSYADSVKGRFTISRDNAKNTVYLQMNSLKPEDTAVSYCAADFQYAIHTDMDYWGHGTQVTVSS | high polyreactivity |
| QVQLVESGGGLVQAGGSLRLSCAASGRTLGYYAMGWYRQAPGKERELVAAISRSGGSTYYADSVKGRFTISRDHAKNTVYLQMNSLKPEDTAVYYCAATYGPSRYRYDYWGQGTQVTVSS | high polyreactivity |
| QVQLVESGGGLVQAGGSLRLSCAASGFTFSVYAMGWYRQAPGKERELVAAINWSGSTTYYADSVKGRFTISRDNAKNTVYLQMNSLKPEDTAVYYCAVEGRTTWPFRTYGYWGQGTQVTVSS | high polyreactivity |
| QVQLVESGGGLVQAGGSLRLSCAASGRIFGYYAMGWYRQAPGKERELVAVISWSGGSTYYADSVKGRFTISRDNAMNTVYLQMNSLKPEDSAVYYCAAERLYSIYDYWGQGTQVTVSS | high polyreactivity |

| Sequence | polyreactivity (PSR sort gate) |
| --- | --- |
| QVQLVESGGGLVQAGGSLRLSCAASGSIFAAYTMGWYRQAPGKERELVAAISVSTVSTYYADSVKGRFTISRDNAKNTVYLQMYSLKPEDTAVDYCNADATDSYPEKDEHDSWGQGTQVTVSS | low polyreactivity |
| QVQLVESGGGLVQAGGSLRLSCAASGSTFYPYGMGWYRPAPGKERELVAAITDSGGSTYYADSVKGRFTISRDNAKNTVYLQMNSLKPEDTAVYYCAKTYWYPWRASLWHEYDYWGQGTQVTVSS | low polyreactivity |
| QVQLVESGGGLVQAGGSLRLSCAASGGTFFVYMGRYRQAPGKERELVAAITGGGGTYYADSVKGRFTISRDNAKNTVYLQMNSLKPEDTAVYYCATRGATSTVPEGDSWGQGTHVTVSS | low polyreactivity |
| QVQLVESGGGLVQAGGSLRLSCAASGSTFSFYDMGWSRQAPGKERELVAAITGSGGTTYYADSVQGRFTISRDNAKNTVYFQMNSLKPEDTAVYFCAADSLESYPDYEYDFWGQGTQVTVSS | low polyreactivity |
| QVQLVESGGGLVQAGGSLRLSCPASGSTISGNTMGWYRHDPGKERELVAAISFRSGRTYYADSVKGRFTISRDNAKNTGYLQMNSLIPEDTAVYYCNAEIYTYRTGRGYSRMDYWGQGSQVTVSS | high polyreactivity |
| QVQLVESGGGLVQAGGSLRLSCAASGSIFRSNAMGWYRQAPGKERELVAVIRSGGTTNYADSVKGRFTISRDNAKNTVYLQMNSLKPEDTAVYYCAAYGAHGGVIVVEGDYWGQGTQVTVSS | low polyreactivity |
| QVQLVESCGGLVQAGGSLRLTCAASGSTFTIYAMGWYRQAPGKERELVAVISSSGGSTYYADSVKGRFTISRDYAKNTVYLQMNSLKPEDTAVYYCAADTRYFGGYLTLYYWGQGTQVTVSS | low polyreactivity |
| QVQLVESGGGLVQAGGSLRLSCAASGRTFLHYAMGWYRQAPGKEREFVAAIRTSGTSTYYADSVKGRFTISRDNAKNTVYLQMNSLKPEDTAVYYCAVARGSGWYWRSDYWGQGTQVTVSS | high polyreactivity |
| QVQLVESGGVLVQAGGSIRLSCAASGSTSYIYVMGWYRQAPGKERELVATISKNGGDTYADSVKGRFTISRDNAKNTVYLQMNSLKPEDTAVYYCNARAFRYNRRISSRYNYWGQGTQVTVSS | high polyreactivity |
| QVQLVESGGGLVQAGGSLRLSCAASGITFSKYAMGWFRHAPGKERELFASITWSGTSTYYADSVKGRFTISRDNAKNTVYLQMKSLKPEDTAVYYCAADGWGTFWRAQNGYGYEHDYWGKGTQVTVSS | low polyreactivity |
| QVQLVESGGGLVQAGGSLRLSCAASGRTFSSTAMGWYRPAPGKERELVATITYSGGSTYYADSVKGRFTISRDNAKNTVYLQMISLKPEDCAVYYGAVRVSTYMTKYYYWGQGTQVTVSS | low polyreactivity |
| QVQLVESGGGLVQAGGSLRFSCAASGGIFRLYGMGWYREAPGKERELVAAIRQSGGRTYYADSVKGRFTISRDNAKNTVYLQMNSLKPEDTAVYYCAADLLYRSSGTVRSDYSRYDYWGQGTQVTVSS | low polyreactivity |
| QVQLVETGGGLVQAGGRLRLSCAASGSTFKNNAMGWSRQAPGKEREFVAGITRRGTSTYYADSVKGRFTISRDNAKNTVYLQMNSLKPEDTAVYYCNARLRARSTIKLDYWGQGTQVTVSS | high polyreactivity |
| QVQLVESGGGLVQAGGSLRLSCAASGFIFPFYVRGWYRQAPGKERELVAAINTGGSTYYADSVKGRFTISRDNAKNTVYLQMNSLKPEDTAVYYCAAKSRVKKYYFYGYNYWGQGTQVTVSS | high polyreactivity |
| QVQLVESGGGLVQAGCSLRLSYAASGLTFRRNPLGWYRQAPGKERELVATITSVGSTNYADSVKGRFTISRDNAKNTVYLQMISLKPEDTAVYYCRTVTYGYWGQGTQVTVSS | high polyreactivity |
| QVQLVESGGGLVQAGGSLRLSCAASGRTFRWNAMGWYRQAPGKERELVAAISSGGSTYYADSVKGRFTISRDNAKNTVYFQMNSLKPEDTAVYYCNKYYVRAYDTQEYDYWGQGTQVTVSS | high polyreactivity |
| QVHLVESGGGLVQAGGSLRISCAASGYIFSYYAMGWYRQAPGKERELVASITSSGGSTYYADSVKGRFTISRDNAKNTVYLQMNSLKPEYTAEYYCNADVYDTYSPLGYYYWGQGTQVTVSS | low polyreactivity |
| QVQLVESGGGLVQAGGSLRLSCAASGRTFQYYAMGWYRQAPGKERELVAAITWTGGSTYYADSVKGRFTISRDNAKNTVYLQKNSLKPEDTAVYYCIARYKTLGSQSRSGPGGKYGYWGQGTQVTVSS | high polyreactivity |
| QVQLVESGGGLVQAGGSLRLSCAASGSTFPYYPMGWYRQAPGKERELVAAISRGDSTNYADSVKGRFTISRDNAKNTVYLQMNCLKPEDTAVYYCAARLQYRRTSVKYYFWGQGTQVTVSS | high polyreactivity |
| QVQLVESGGGLVQAGGSLRLSCAASGIIFGENAMGWYRQAPGKERELVAAITESGGSTYYADSVKGRFTISRDNAKNTVYLQMNSLKPEDTAVYYCNALPFRYGKRRGYWGQGTQVTVSS | low polyreactivity |
